In the DeepSol protein solubility set:

test: soluble on expression in E. coli; label from the status in PepcDB or PDB records

| Sequence | soluble on expression in E. coli |
| --- | --- |
| GPGSMDVVATPLWSSPPCGSPMAGTVSSGNPLFHVGRSYYRSAAKAYNMTRYVVESLKLDETVLATSMAYWHTFVDRLELRKFDEIVLSASCVFLASKVEHYKVRLNRVIALVFEISGEGDEMEGWRRMLLEMELLVCHTLGFNFQIIHPMKRIVELVPEDHTQVLECAHRLFLLSFMTPLCVRVPADEVAEALVYLAADGAGQLEPYAGKFRCDAVERREGIINVMIDALAVMRKNTSLPKVDDMIVARRKRMREQESFRPSVAHSSGGTGSLDVTPSAFLVE | soluble |
| MGFLPISLLHLVIKLLKNSLRKSSRELKDNFYDEPYIVLSELRELKTYFSILSAIAAGKRKPSEMANEVDLEGRKIHSYIETLIRLGFVERDLLVARKEKRWLYIISDPMLMSWFSLVYPKRTEIEIGAMTIDDVKEILQRIFSFRFEQVSREFLIELNRKGNLPFRFTKIGRWWHKEEEIDIVALNEKEKKSLLIEIKWKELKEREIKGILNDLELEGWDKIYGVIAKKVQKKENLWERGFLIWDLEDLDVLAAALEHHHHHH | not soluble |
| MSLVPHHQPCPPASSLSAGPRGGVIMLILKNVTAVQLHPAKVQEGVDIAIENDVIVAIGDALTQRYPDASYKEMHGRIVMPGIVCSHNHFYSGLSRGIMANIAPSPDFISTLKNLWWRLDRALDEESLYYSGLICSLEAIKSGCTSVIDHHASPAYIGGSLSTLRDAFLKVGLRAMTCFETTDRNNGIKELQEGVEENIRFARQIDEAKKAATEPYLVEAHIGAHAPFTVPDAGLEMLREAVNATGRGLHIHAAEDLYDVSYSHHWYGKDLLARLAQFDLIDSKTLVAHGLYLSKDDIALLNQRDAFLVHNARSNMNNHVGYNHHLSDIRNLALGTDGIGSDMFEEMKFAFFKHRDAGGPLWPDSFAKALTNGNELMSRNFGAKFGLLEAGYKADLTICDYNSPTPLLADNIAGHIAFGMGSGSVHSVMVNGVMVYEDRQFNFDCDSIYAQARKAAASMWRRMDALAEGHHHHHH | soluble |
| GPGSMNAASYSGSGLASAATVEDVVKPDTIAAILAQLKEQDVRIGRLEAAVERSAINRTHFDILTMAGVTADFVCDEISFHNRSTVEFNALPCKVTLDYPCGELSILLDDADSDLSFLGVTLRVDCITDCHLLVDPDNCSVVVDTNTSKITDVTQLVLVGPTQEATRELYEALRDVVAQRRPPCSPAPDTTTTTTRNSSRALINRSEGEYESTLGGDGKLFSIEATPNNAGTTRNNVDASSSPRLQLSNTLPCDRTAHTPVDPRRPNTLPSFSANRKGTQQE | soluble |
| MTQDRPLLAVQEALKKCFPVVEEQQGLWQSALRDCQPLLSSLSNLAEQLQAAQNLRFEDVPALRAFPDLKERLRQPSSSRCETWSAAMWSECFRSMSNTQTQLALMLSCSLQQ | soluble |
| MAMSTKLSVAIHILSLIETGPQEQVTSEYIASSVNTNPVVVRRLMSQLKKAGLIHSMRGANKNTLLKKPEEISLYEIYTAVELEREIFNIHQNPNPNCSVGANIQSVLETEFTKVQQKMEEELKSITLADVIHEIEVKRDK | not soluble |
| MGSDKIHHHHHHMTLTYFLDKETDTPIYKQLYESLRKDILSGKLKTGAKLPSIRHFAQTLNVSVITVQNAYHQLEAEGYITSRDRSGYYVENLAGLTLLERQDAKIIHAPHHDQASEDQIIDFSPSNIDNAQFPLSIWRKCVNETLLNHETRFNHHGAKLGELPLRAAVADYVTKSRILDCTEEQVVIFEGIEHSMNILSLLFKQMGKTAIMEQPSYKVIEDIFSLHQLPIQRVPSPKGVLSLEDLQEQKNGVLYLTPSHQYPYGSFLSIQERIKIINWAQNSESYVIEDDYDGEFRYDIDPVPSLQGLSKNHVIYIGTFSKTLSPAIRVSYAILPPELMKRYQEVCSMFPSPVSVHLQLALAKFMEDGHYERHIRRMRKYYKEKQDFLIATIQEVMGDHAALHGTTAGLHLVLELKNNSRPYKQLLAAARAHGVNIYPVKDVTPNPYFILGFSGLPREKITEGIRRLHKAWIE | not soluble |
| MGSDKIHHHHHHMNKLKIGTSGWVYKHWMDIFYPPNLPSDQQLSFYAQHFATVEINFSFYRLPERSVFETWHKQTPSNFLFAVKGSRYLTHMKKLKDPIEPLSRIMERASGLQEKLGPILFQFPHTWHINIERLQPFLELLQTYPKQKFTVEFRHSSWLIPQVYQLLETAGVGLCLPVSPTVPLDICLTAPWTYIRMHSGQWNVGYTDEELSTWVERIRSFLMQEIDVYVYFNNDPDGNAIRDAQRLYCLLGSC | not soluble |
| MLRVLIVDDEMLARDELAYLLKRTNDEMEINEAENIESAFDQMMDQKPDLLFLDVDLSGENGFDIAKRLKKMKHPPAIVFATAYDQYALKAFEVDALDYLTKPFDEERIQQTLKKYKKVNRDIVETEQNSHAGQHKLALSVGESIVIVDTKDIIYAGTEDGHVNVKTFDHSYTVSDTLVVIEKKLPDSDFIRVHRSFVVNTEYIKEIQPWFNSTYNLIMKDGSKIPVSRTYAKELKKLLHI | not soluble |
| MTYPTFALDDITSLHESAQVEFKLARGRDGQGQLPEDIWATYSSFANTLGGEIILGVREDRGHFTIEGIPNPQPVLQEFWEIIDNPSRVSCNILAISDVQLIEIMNKKLIRIRVPLAPEHLKPVFIGTDVYTGSYFRVGDADMHASRKQVMQMLRRAHHCNKLFKARLEHHHHHH | not soluble |
| MEQNGFHTLSLFLNPKVLRPLLTQAVTQLPKYFLGQSSTPPSTSFEGRYKPSFLERAAFSTNPFDNTGSDTQQKLSPTELIRGSYGEGREAGKKTPAELIMSTDDLKRQMPSLPDALKDTIRIQEVPKQEKSDFSEQGGVASMIPQSPFVSNIDKVSGDEAGRQQKDVMDYITEFNNRSMPEEQRGSSPVNEETLSHTPISEEEHLKANDMPEQATDYVNAVGNFIHKDANPSNLWERFRKSEFSEHLMDFFAGLASGKTPQESFSNAALVMRQGNNTRLQNRPIFAFLRSKGYDDKDAQAIMQYPDLAMKVIGSTLSPQEDYRTLTAEEKAKQGLPEDMAFQISTSTGKIIPVQGGQRSTASGLGGNTDSMLSKPESGYMLVKDKNAPHGIRAMPIAGSGAEHKLIQEQKEEERKEQQAKMQILESADRSNRIISTSKELLKIVDEHPHVAGFLGYWGSFIPGFKAKDFGHMLDSLKASIGLDALTKAKAFSPNGASGFGNLSNMELQALQNSVAALYQDLTAEQLKKSLTTIIDTFNKSNAATRAILFGGAEATRELVRAAYGEDAYKKNNTQSDVSLEKQIEALPEGILFIDSDGRIKEKQTNG | not soluble |
| MGSDKIHHHHHHMRVLHFYKTYLSETVGGIEQVIFQLCESSGSWGIDNHVLTLSSDPHPPVVPFGGHVVHRARLDLQLASTGFSLSVFKQFRELAAEADVVNYHFPWPFMDLVHFLTGMNKPSVVTYHSDIIRQRVLLKLYRPLMSRFLHSVDRIVAASPNYFSTSDVLRQYREKTRVITYGLDKDGYPKPATQRLEHWREKLGPRFFLFVGVMRYYKGLHILLDALQGTDYPVVIVGAGPLQAELYAQAAALGLRNVHFLGRVDDEDKVALLQLSYAMVFPSHLRSEAFGISLLEGAMYGKPMISSEIGTGTSYINIHGETGLVVPPSQPAAFRQAMRWLWEHPQQAEEMGRNAEARYRQLFTAEEMGRRWSELYRELLEEKASSRYVKAAR | not soluble |
| MGSDKIHHHHHHMTNANGNLKKCPITISSYTLGTEVSFPKRVKVAAENGFDGIGLRAENYVDALAAGLTDEDMLRILDEHNMKVTEVEYITQWGTAEDRTAEQQKKEQTTFHMARLFGVKHINCGLLEKIPEEQIIVALGELCDRAEELIIGLEFMPYSGVADLQAAWRVAEACGRDNAQLICDTWHWARANQTAESIKNVPADRIVSIQLCDVHETPYKELREESLHDRLAPGEGYGDTVGFAKILKEHGVNPRVMGVEVISDSMVATGLEYAALKVYNATKKVLDEAWPEISPR | soluble |
| MSLSSRYTPSEMAQALGAGLLSFPVTHFDADMAFDEPAYRSNLDWLSSHPAAGLFAAGGTGELFSLTLDEVDRAVRAAVTQTAGRMPVIAPAGYGTAIAVAMAQAAERNDADGILLFPPYLTECDADGVAEHVERVCKATSLGVIVYGRANARLDDVALARVAERCPNLVGYKDGIGDVERMTRIYARLGDRLLYVGGLPTAETFALPYLEMGVTTYSSAIFNFLPEWALSFYAAVRARDHATIYRELNDFVLPYTVLRNRRAGYAVSIVKAGMRAVGRPAGPVRTPLADLTEDEFAQLTQLIGGRREGHHHHHH | not soluble |
| SMSDESVYKVLLLGAPGVGKSALARIFGGVEDGPEAEAAGHTYDRSIVVDGEEASLMVYDIWEQDGGRWLPGHCMAMGDAYVIVYSVTDKGSFEKASELRVQLRRARQTDDVPIILVGNKSDLVRSREVSVDEGRACAVVFDCKFIETSAALHHNVQALFEGVVRQIRLRRDSKEA | soluble |
| MGSSHHHHHHSSGLVPRGSHMVHAFPHGTTATPTAIAVPPSLRLPVIEAAFPRQLHPYWPKLQETTRTWLLEKRLMPADKVEEYADGLCYTDLMAGYYLGAPDEVLQAIADYSAWFFVWDDRHDRDIVHGRAGAWRRLRGLLHTALDSPGDHLHHEDTLVAGFADSVRRLYAFLPATWNARFARHFHTVIEAYDREFHNRTRGIVPGVEEYLELRRLTFAHWIWTDLLEPSSGCELPDAVRKHPAYRRAALLSQEFAAWYNDLCSLPKEIAGDEVHNLGISLITHHSLTLEEAIGEVRRRVEECITEFLAVERDALRFADELADGTVRGKELSGAVRANVGNMRNWFSSVYWFHHESGRYMVDSWDDRSTPPYVNNEAAGEK | soluble |
| ASTSRLDALPRVTCPNHPDAILVEDYRAGDMICPECGLVVGDRVIDVGSEWRTFSNDK | soluble |
| MGSDKIHHHHHHMKCLLCGQTMKTVLTFSSLLLLRNDDSCLCSDCDSTFERIGEENCPNCMKTELSTKCQDCQLWCKEGVEVSHRAIFTYNQAMKDFFSRYKFDGDFLLRKVFASFLSEELKKYKEYQFVVIPLSPDRYANRGFNQVEGLVEAAGFEYLDLLEKREERASSSKNRSERLGTELPFFIKSGVTIPKKILLIDDIYTTGATINRVKKLLEEAGAKDVKTFSLVR | not soluble |
| MALDLTAYFDRINYRGATDPTLDVLQDLVTVHSRTIPFENLDPLLGVPVDDLSPQALADKLVLRRRGGYCFEHNGLMGYVLAELGYRVRRFAARVVWKLAPDAPLPPQTHTLLGVTFPGSGGCYLVDVGFGGQTPTSPLRLETGAVQPTTHEPYRLEDRVDGFVLQAMVRDTWQTLYEFTTQTRPQIDLKVASWYASTHPASKFVTGLTAAVITDDARWNLSGRDLAVHRAGGTEKIRLADAAAVVDTLSERFGINVADIGERGALETRIDELLARQPGADAP | not soluble |
| RVDADNTALVDLWERSVRATHDFLSEADIVELYPQVRDLYLPAVEVWVLVDDDGVAQGFIGLNQAHVEMLFVEPGLRGRGIGRRLLDHARATWPRLSVDVNEQNPQACGFYRHYGFRQTGRSATDSAGRPFPLLHMSL | not soluble |
| MGSDKIHHHHHHMKILHYIPSIDRTSGGVGTYMQLLTAELGKLVELHVVTHKETNPLELKNCHVHFIENNNPFLPKEKKNFIFLLNEIKPDVFHANCCWLPMSAYTAMWARNAGYHVVYTPHGMLEPWIMKRHYWTKKFPASLLFQKRGIQIANVIHATAESEKHNLTQLGWNNNIEVIPNCVEIDKITMKESWIRNKNILFLSRVHVKKGINFLIEATANLKTELQGYTINIAGEGEESYINELKQLASKLGVENLIHFIGGVYGDKKWELFKKADLFVLPTHSENFGIVVAEALACGTPVITTQGTPWQELESYHCGWWTEIGTEATTKALKEFLQCTETQLEQMGKNGRKLIEEKYSSQKVAQDMVELYKKVCL | not soluble |
